Data from patent US7456001B2, “Lipoxygenase” (Novozymes A/S, priority 2000, dated 2008).

Legend:
[1] = biological target: lipoxygenase (Gaeumannomyces tritici, UniProt Q8X150); test: Determination of substrate specificity (Michaelis-Menten kinetics, hydroperoxide formation at 234 nm); settings: lipoxygenase produced as in Example 4, standard assay, 25° C., pH 7.0
Experimental: (§1) The lipoxygenase activity was determined spectrophotometrically at 25° C. by monitoring the formation of hydroperoxides. […] The enzyme was typically diluted sufficiently to ensure a turn-over of maximally 10% of the added substrate within the first minute. The absorbance at 234 nm was followed and the rate was estimated from the linear part of the curve. One unit causes an increase in absorbance at 234 nm of 0.001/min.
(§2) The substrate specificity of the lipoxygenase was studied using the standard assays condition with a number of different compounds as substrate. All substrates were produced as dispersions with 0.2%(v/v) Tween20. The amount of compound added to make up these stock solutions was determined by mass, since viscosity made accurate measurement of volume impossible. The limiting rate constant and the specificity constant were determined by varying the amount of substrate added in the assays. The resulting rates were plotted against the concentration of substrate used. Finally, the plots were fitted by non-linear least squares regression to the theoretical hyperbolic curve of the Michaelis-Menten equation. The cis-trans-conjugated hydro(pero)xy fatty acids were assumed to have a molecular extinction coefficient of 23,000 M^−1 cm^−1.
(§3) The activity of lipoxygenase produced as in Example 4 was tested on various substrates as described above. The results are expressed as kcat (or Vmax), KM and kcat/KM according to the Michaelis-Menten equation:

[2] = tested on: CCCCC/C=C\C/C=C\CCCCCCCC(=O)OC; test: purified protein, by the assay type; settings: other: lipoxygenase produced as in Example 4, standard assay, 25° C., pH 7.0
Experimental: as §1, §2, §3

[3] = tested on: CCCCC/C=C\C/C=C\C/C=C\C/C=C\CCCC(=O)O; test: purified protein, by the assay type; settings: other: lipoxygenase produced as in Example 4, standard assay, 25° C., pH 7.0
Experimental: as §1, §2, §3

[4] = tested on: CCCCC/C=C\C/C=C\CCCCCCCCO; test: purified protein, by the assay type; settings: other: lipoxygenase produced as in Example 4, standard assay, 25° C., pH 7.0
Experimental: as §1, §2, §3

Chain of lipoxygenase (Q8X150 17-618): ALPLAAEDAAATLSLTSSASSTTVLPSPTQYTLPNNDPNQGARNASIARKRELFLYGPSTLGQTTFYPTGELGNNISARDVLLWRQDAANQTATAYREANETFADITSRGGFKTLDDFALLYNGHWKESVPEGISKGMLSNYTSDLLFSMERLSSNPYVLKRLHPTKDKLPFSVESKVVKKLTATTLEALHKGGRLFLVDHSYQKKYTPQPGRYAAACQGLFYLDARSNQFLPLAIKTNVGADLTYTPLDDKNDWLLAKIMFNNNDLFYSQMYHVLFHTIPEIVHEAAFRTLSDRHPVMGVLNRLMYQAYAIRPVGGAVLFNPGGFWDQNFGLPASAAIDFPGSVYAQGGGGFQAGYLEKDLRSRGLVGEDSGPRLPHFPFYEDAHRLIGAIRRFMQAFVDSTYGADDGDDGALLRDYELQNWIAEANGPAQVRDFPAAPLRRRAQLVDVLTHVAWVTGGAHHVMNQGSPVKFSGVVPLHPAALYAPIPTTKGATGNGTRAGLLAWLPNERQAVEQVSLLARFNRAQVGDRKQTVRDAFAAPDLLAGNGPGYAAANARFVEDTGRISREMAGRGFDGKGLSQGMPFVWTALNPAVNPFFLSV

Compound | kcat ([1]; kcat (or Vmax)) | Km [1] | Km [2] | Km [3] | Km [4]
CCCCC/C=C\C/C=C\CCCCCCCC(=O)O [Linoleic acid] | 5.63 micro-mol/min/mg | 6.8 µM | – | – | –
lipoxygenase (Gaeumannomyces tritici) | – | – | 164 µM | 17.5 µM | 3.4 µM
